The target of this assay is T1, Recombinant Human CEACAM-5/CD66e Protein, CF (R&D SYSTEMS) (human, UniProt P06731 35-685).
T1 construct: Bought recombinant protein, immobilised on a CM5 chip by amine coupling; also called 抗原CEACAM5
T1 sequence (looked up): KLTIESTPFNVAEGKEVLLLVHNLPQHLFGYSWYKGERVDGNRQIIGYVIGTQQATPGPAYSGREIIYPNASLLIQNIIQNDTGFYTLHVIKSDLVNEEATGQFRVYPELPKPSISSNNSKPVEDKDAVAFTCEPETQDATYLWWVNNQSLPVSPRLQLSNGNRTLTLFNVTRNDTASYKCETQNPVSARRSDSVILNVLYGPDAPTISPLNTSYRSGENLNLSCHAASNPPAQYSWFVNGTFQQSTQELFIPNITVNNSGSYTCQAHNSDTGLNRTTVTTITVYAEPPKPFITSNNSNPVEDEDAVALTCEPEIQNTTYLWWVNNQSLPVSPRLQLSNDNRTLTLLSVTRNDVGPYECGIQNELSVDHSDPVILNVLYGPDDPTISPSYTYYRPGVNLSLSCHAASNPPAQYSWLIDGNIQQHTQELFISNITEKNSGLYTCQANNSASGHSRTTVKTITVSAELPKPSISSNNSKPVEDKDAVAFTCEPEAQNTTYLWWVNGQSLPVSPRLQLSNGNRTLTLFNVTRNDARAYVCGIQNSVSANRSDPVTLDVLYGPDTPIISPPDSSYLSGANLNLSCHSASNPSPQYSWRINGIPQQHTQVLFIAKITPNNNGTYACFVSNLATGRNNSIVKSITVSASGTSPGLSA
Kind of assay: SPR, Biacore T200; CEACAM5 immobilised on CM5 (279 RU), CEA-V2122 as analyte, single-cycle kinetics, bivalent analyte fit; KD = kd1/ka1. (In SPR one partner is held on a chip, and binding of the other changes the refractive index at the surface.)

B1: CEA-V2122 (scFv)
chain: QVKLEQSGAEVVKPGASVKLSCKASGFNIKDSYMHWLRQGPGQRLEWIGWIDPENGDTEYAPKFQGKATFTTDTSANTAYLGLSSLRPEDTAVYYCNEGTPTGPYYFDYWGQGTLVTVSSGGGGSGGGGSGGGGSENVLTQSPSSMSVSVGDRVNIACSASSSVPYMHWLQQKPGKSPKLLIYLTSNLASGVPSRFSGSGSGTDYSLTISSVQPEDAATYYCQQRSSYPLTFGGGTKLEIKGGGGSGGGGAEAGITGTWSDQLGDTFIVTAGADGALTGTYENAVGGAESRYVLTGRYDSAPATDGSGTALGWTVAWKNNSKNAHSATTWSGQYVGGADAKINTQWLLTSGTTNANAWKSTLVGHDTFTKVKPSAASHHHHHH
notes: Fusion of an scFv with a streptavidin mutant; also called scFv-V2122; CEA-Cupid
For the molecule B1, the Kd is 1.08 pM.
